This note sets out measurements from patent US9389182B2 (University of Southern California, priority 2011, dated 2016).

Data set [1] concerns the target T1, BSA (Bos taurus, UniProt P02769).
T1 construct: purchased thermo-Fisher BP1605-100
The experiment in a line: Blocking of exposed amine groups on BSA before AMC labeling. On the set-up: species or system bovine. The note with it: 0.5-50 mM. An excerpt: (§1) In some experiments samples were pre-treated with either N-(3-Dimethylaminopropyl)-N′-ethylcarbodiimide hydrochloride (Sigma-Aldrich, MO, USA, catalogue#E6383-1G) to block free protein carboxyl groups, with sulfo-N-hydroxysulfosuccinimide-acetate (Pierce, Rockford, Ill., USA, catalogue #26777) to block free protein amino groups, or with tryptamine (Sigma-Aldrich, MO, USA, catalogue#193747-10G) to disrupt potential non-covalent interactions in protein hydrophobic pockets.
To test whether exposed amine groups on the protein might react with the carboxyl group on the fluorophore, we used 0.5-50 mM sulfo-NHS-acetate was used to block exposed amine groups on BSA. […] This implies that the complex formed between AMC and BSA is independent of exposed protein amine groups.

Another data set concerns Trypsin. The experiment in a line: Proteolysis of AMC-labeled proteins by trypsin, fluorescence assay (AMC release). It is filed as biochemical. To be noted: for substrate for proteolysis by trypsin, release of fluorescent AMC: AMC-labeled protein 10 μg/ml, 10 μM trypsin. How it is done:
FIG. 3. Proteolysis of AMC-labeled Proteins by Trypsin. […] Values are means±SE's, n=3. […] All assay conditions (including trypsin concentration) were identical to those in A, and each substrate protein was used at a final concentration of 10 μg/ml. […] Values are means±SE's, n=3;
FIG. 4. Protease and Substrate Titration, and Particle Size of Proteolytic Degradation Products. […] Values are means±SE's, n=4, for which the fluorescence of controls was subtracted. […] Background fluorescence or radioactivity were measured in the absence of protease (proteolysis buffer alone), and proteolysis was measured by increased fluorescence or acid-soluble radioactivity after incubation with either 10 μM Trypsin, 1 μg/ml purified 20S proteosome, or 150 μg/ml MEF cell lysate. Percent degradation of Hb-AMC is reported as the percentage of total fluorescence that could be released from Hb-AMC after exhaustive proteolytic digestion (not shown), whereas percent degradation of [3H]Hb is reported as the percent of total (initial) radioactive counts released into TCA-soluble form by proteolysis. All values are means±SE's, n=3;

A further data set concerns the target T2, purified 20S proteasome (Homo sapiens, UniProt P28072+P28074+Q99436).
T2 construct: purchased Biomol PW8720-0050
Description: Degradation of native and oxidized AMC-labeled proteins by purified 20S proteasome. The class given is biochemical. To be noted: for increase in susceptibility to proteasomal degradation: following mild oxidation with H2O2 (1.0 mM); for substrate for the purified proteasome: unoxidized form. The method, then:
(§2) FIG. 7. Proteolytic Susceptibility of Modified AMC-labeled Proteins. (A) The capacity of 20S proteasome to degrade both the native and oxidized forms of Hb-AMC and BSA-AMC was measured. For both assays, 1 μg/ml of purified 20S proteasome was combined with 10 μg/ml of Hb-AMC, Hbox-AMC, BSA-AMC, or BSAox-AMC and incubated for 4 hr at 37° C. Protein degradation was then measured as per FIG. 4. Hbox-AMC, and BSAox were prepared by treating Hb-AMC and BSA-AMC with 1.0 mM H2O2 followed by extensive dialysis. (B) The Capacity of MEF cell lysates to degrade various modified forms of Hb-AMC was measured. Hb-AMC was modified by incubation with dilute HCl at pH 4, 10% 2-mercaptoethanol, 70% methanol, 1 mM peroxynitrite, or 1 mM H2O2, or was boiled at 100° C. for 60 minutes, or subjected to freeze-thawing at −80° C. The substrates were then extensively dialyzed and incubated with 150 μg/ml of MEF cell lysates for 4 hr. In both panels, values are means±SE's, n=3.

Data set [2] concerns the target T1, BSA. Description: Blocking of free carboxyl groups on BSA before AMC labeling (SDS-PAGE, native gels, gel fluorescence). On the set-up: species or system bovine. To be noted: 50 mg BSA, 1 h. How it is done: FIG. 2. […] Values are means±SE, n=3. […] Values are means±SE, n=3. […] A silver stain was later performed. (D) N-(3-Dimethylamineopropyl)-N′-ethylcarbodiimide (1 ng/ml to 100 μg/ml) which blocks free carboxyl groups, was incubated with 50 mg of BSA for 1 hr. BSA was extensively dialyzed then prepared as in panel (C). Increasing concentrations of N-(3-Dimethylamineopropyl)-N′-ethylcarbodiimide, caused a progressive decrease in BSA's electrophoretic mobility, and loss of fluorescence at 66 kDa; a representative gel is shown to the left of the panel, and fluorescence is quantified in the graph to the right; […]
For SDS Page gels, samples were mixed with 25% Nupage loading Dye (Invitrogen, Carlsbad, Calif., USA, catalogue#NP0007) containing 5% 2-mercaptoethanol, Samples were boiled for 3 minutes then added to a 12% Tris-glycine SDS page gel. […] In experiments where gel fluorescence was analyzed, gels were placed in a chamber and exposed to an excitation wavelength of 365 nm. […]

The next data set deals with pepsin (Sus scrofa, UniProt P00791). The experiment in a line: Proteolysis of Hb-AMC by pepsin (AMC release). To be noted: pH 2, 4 hr at 37° C.
pepsin, sequence (P00791 60-385): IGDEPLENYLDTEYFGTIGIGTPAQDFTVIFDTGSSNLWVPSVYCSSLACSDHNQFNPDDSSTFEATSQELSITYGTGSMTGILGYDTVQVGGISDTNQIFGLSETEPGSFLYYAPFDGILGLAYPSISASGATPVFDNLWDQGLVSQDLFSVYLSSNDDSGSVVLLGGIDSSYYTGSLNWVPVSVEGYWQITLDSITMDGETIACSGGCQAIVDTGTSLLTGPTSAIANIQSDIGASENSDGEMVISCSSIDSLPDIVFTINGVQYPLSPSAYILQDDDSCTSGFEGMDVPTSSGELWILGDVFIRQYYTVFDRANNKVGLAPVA
Another data set deals with MEF cell lysates. Description: Degradation of modified Hb-AMC by MEF cell lysates. The class given is biochemical, murine. The note with it: oxidative modification by H2O2 or peroxynitrite. The method, then: as §2, with “In both panels, values are means±SE's, n=3.” left out
Murine embryonic fibroblasts (MEF) from ATCC (Manassas, Va., USA, catalogue CRL-2214) were grown in Dulbecco's Modified Eagle's Medium (DMEM, Mediatech, Manassas, Va., catalogue #10-013-CV) supplemented with 10% Fetal Bovine Serum (Hyclone, Logan, Utah, catalog #SH30070.03). […] The lysates were then centrifuged at 10,000 g for 10 minutes, after which the supernatants were retained (the pellets discarded) and protein content was determined by BCA assay.

The target of another data set is chymotrypsin (Bos taurus, UniProt P00766). Description: Proteolysis of Hb-AMC by chymotrypsin (AMC release). The note with it: pH 7.8, 4 hr at 37° C.
Data set [3] in a line: pH stability of the Hb-AMC complex. The class given is physicochemical. The note with it: pH 1-12, 4 hr, read after readjusting to pH 7.8. The method, then: The stability of protein-AMC adducts over the same broad range of pH was determined. […] The viability of protein-AMC complexes as substrates for proteases was tested with widely different pH optima.
For a further data set, the target named is T3, proteinase K (Parengyodontium album, UniProt P06873).
T3 construct: purchased Oncor S4508
T3 sequence (P06873 106-384): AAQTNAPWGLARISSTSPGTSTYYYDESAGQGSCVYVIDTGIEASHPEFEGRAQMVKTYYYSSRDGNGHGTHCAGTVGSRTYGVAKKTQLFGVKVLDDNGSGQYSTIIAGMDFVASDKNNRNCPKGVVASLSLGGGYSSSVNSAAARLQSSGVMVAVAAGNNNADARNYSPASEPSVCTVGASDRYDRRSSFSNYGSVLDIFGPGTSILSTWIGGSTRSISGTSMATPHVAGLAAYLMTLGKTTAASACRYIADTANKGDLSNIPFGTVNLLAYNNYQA
The experiment in a line: Proteolysis of Hb-AMC by proteinase K (AMC release). It is filed as biochemical. The note with it: pH 11, 4 hr at 37° C.

Data set [4] can be described thus: Stability of Hb-AMC after frozen storage or denaturation (background release of free AMC). The class given is physicochemical. How it is done:
FIG. 5. Stability of AMC-labeled Hemoglobin After Frozen Storage or Denaturation. (A) Hb-AMC was stored at −20° C. for up to 21 weeks. […] Release of free AMC from the Hb-AMC complex (background fluorescence) was then measured in comparison with control (untreated Hb-AMC). In all three panels, values are means±SE's, n=3;
The stability of AMC-labeled substrates, the resistance of the AMC-protein linkage to various treatments, and the reproducibility of proteolytic assays after prolonged storage are important concerns in weighing the usefulness of the technique of various embodiments of the present invention.
Embodiments of the present invention provide a new way to label proteins for studies of oxidation-induced changes in proteolytic susceptibility. In addition to oxidants, proteolytic substrates are often subjected to various other modifying or denaturing conditions, to test for effects on proteolytic susceptibility, therefore it is important to test the stability of AMC-labeled substrates over a range of harsh conditions.

In data set [5] the target is T1, BSA. Description: Tryptamine competition for non-covalent AMC binding sites on BSA. The arrangement: species or system bovine. To be noted: 100 fold excess.
Source text: as §1
Another possibility was that AMC might be sequestered in protein hydrophobic pockets by non-covalent interactions. […] The ability of the BSA/AMC complex to function as a substrate for proteolysis was also tested.

Where [6] appears, read: stored at −20° C., repeated trials over 150 days.

T1 sequence (P02769 25-607): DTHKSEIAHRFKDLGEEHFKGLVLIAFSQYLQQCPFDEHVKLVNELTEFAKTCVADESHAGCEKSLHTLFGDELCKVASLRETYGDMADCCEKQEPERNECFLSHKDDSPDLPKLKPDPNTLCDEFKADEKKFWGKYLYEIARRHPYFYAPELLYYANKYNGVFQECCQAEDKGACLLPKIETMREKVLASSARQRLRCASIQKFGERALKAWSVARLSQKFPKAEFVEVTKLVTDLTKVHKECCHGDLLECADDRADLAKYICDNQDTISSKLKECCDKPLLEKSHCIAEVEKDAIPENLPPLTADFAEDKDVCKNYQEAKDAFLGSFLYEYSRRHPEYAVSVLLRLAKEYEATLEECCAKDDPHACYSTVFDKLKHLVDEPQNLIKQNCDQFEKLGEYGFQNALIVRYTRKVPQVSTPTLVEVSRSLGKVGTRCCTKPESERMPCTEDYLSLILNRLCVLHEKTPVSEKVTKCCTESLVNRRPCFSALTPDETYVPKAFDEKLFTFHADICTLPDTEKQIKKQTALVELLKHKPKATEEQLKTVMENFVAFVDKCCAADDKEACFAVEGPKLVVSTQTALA
Description for chymotrypsin: (§3) In each experiment, pH was adjusted appropriately for the proteinase studied, and samples were incubated at 37° C. for 4 hours.
Description for pepsin: as §3

Turning to `CC(=O)ON1C(=O)CC(S(=O)(=O)O)C1=O` (centres unmarked) [sulfo-NHS-acetate, sulfo-N-hydroxysulfosuccinimide-acetate], on BSA [1], the “change in the fluorescence of the BSA-AMC complex” value is recorded as “no significant change” and the “free amine groups on BSA blocked” value stood at 80%.

In the case of “BSA-AMC: AMC-labeled bovine serum albumin”, in the data set with Trypsin, the “substrate for proteolysis by trypsin, release of fluorescent AMC” value (from here on “substrate for proteolysis by trypsin”) is “effective and sensitive substrates”. For the same molecule, in the data set with purified 20S proteasome, the “increase in susceptibility to proteasomal degradation” value was “four” and the “substrate for the purified proteasome” value is “rather poor substrates”.

`CCN=C=NCCCN(C)C.Cl` [N-(3-Dimethylaminopropyl)-N′-ethylcarbodiimide hydrochloride]: the “protein carboxyl-group blocking, decreased electrophoretic mobility” value at BSA [2] is given as “dose-dependent protein carboxyl-group blocking”. The “formation of BSA-AMC adducts, fluorescent band at 66 kDa” value at BSA [2] (then AMC and NaCNBH3) was “prevented the formation of BSA-AMC adducts”.

“SOD-AMC: AMC-labeled superoxide dismutase”: the “substrate for proteolysis by trypsin” value in the data set on Trypsin is “effective and sensitive substrates”.

Regarding “Hb-AMC: AMC-labeled hemoglobin, made by reductive labeling with AMC and sodium cyanoborohydride”, the substrate for proteolysis result in the data set with pepsin is “excellent substrate”; in the data set on Trypsin (pH 7.8, 4 hr at 37° C.), “excellent substrate”; with chymotrypsin it was “excellent substrate”; in the data set with proteinase K, “excellent substrate”. In the data set on MEF cell lysates, the “degradation by MEF cell extracts versus unmodified (control) Hb-AMC” value was “significantly increased”. Further, in the data set with Trypsin, the “substrate for proteolysis by trypsin” value was “effective and sensitive substrates”. Besides, the “increase in AMC liberation after trypsin digestion” value in the data set with Trypsin (Hb labeled by full procedure with AMC and NaCNBH3) worked out at 80 fold. Moreover, the “increase in AMC liberation following incubation with trypsin” value in the data set with Trypsin (Hb reacted with AMC alone, no NaCNBH3) is given as “six”. Besides, the “background AMC release relative to Hb reacted with AMC alone” value in the data set on Trypsin (full labeling procedure with NaCNBH3) is recorded as “one-sixth”. The “variation of trypsin-induced release of AMC on storage” value in the data set with Trypsin (setting [6]) is given as “less than 15%”. For the same molecule, the “decrease in stability of the complex” value in [3] is below 0.2%. Besides, the “stability of the complex to modifying or denaturing conditions” value in data set [4] (1 mM H2O2, 1 mM peroxynitrite, dilute HCl pH 4, 10% 2-mercaptoethanol, freeze-thawing at −80° C., or 50% methanol) is listed as “almost completely stable”. For the same molecule, the “breakdown of the Hb-AMC complex” value in data set [4] (boiling (100° C.) for 60 minutes) is listed as 3.1%. For the same molecule, in data set [4] (repeated −20° C. freeze-thaw cycles), the “effect of repeated freeze thaw cycles on stability of the complex (background release of free AMC)” value is given as “did not significantly affect the stability”. The “variation of background AMC release on storage” value in data set [4] (setting [6]) is on record as “less than 15%”. Also, the “sensitivity of proteolytic measurement versus [3H]Hb” value with purified 20S proteasome (1 μg/ml purified 20S proteasome) was “broadly comparable sensitivity”. In addition, the “increase in susceptibility to proteasomal degradation” value with purified 20S proteasome is on record as “more than 300 fold”. Besides, the “substrate for the purified proteasome” value with purified 20S proteasome is “rather poor substrates”.

Regarding `NCCc1c[nH]c2ccccc12` [tryptamine], at BSA [5], the “association between AMC and BSA blocked” value is “above 30%”; the “effect on effectiveness of BSA as a proteolytic substrate” value is reported as “minimal effects”.

B1: catalase: catalase with the AMC fluorophore bound (AMC-labeled catalase) (conjugate, UniProt P00432 2-527, looked up)
Catalase: ADNRDPASDQMKHWKEQRAAQKPDVLTTGGGNPVGDKLNSLTVGPRGPLLVQDVVFTDEMAHFDRERIPERVVHAKGAGAFGYFEVTHDITRYSKAKVFEHIGKRTPIAVRFSTVAGESGSADTVRDPRGFAVKFYTEDGNWDLVGNNTPIFFIRDALLFPSFIHSQKRNPQTHLKDPDMVWDFWSLRPESLHQVSFLFSDRGIPDGHRHMNGYGSHTFKLVNANGEAVYCKFHYKTDQGIKNLSVEDAARLAHEDPDYGLRDLFNAIATGNYPSWTLYIQVMTFSEAEIFPFNPFDLTKVWPHGDYPLIPVGKLVLNRNPVNYFAEVEQLAFDPSNMPPGIEPSPDKMLQGRLFAYPDTHRHRLGPNYLQIPVNCPYRARVANYQRDGPMCMMDNQGGAPNYYPNSFSAPEHQPSALEHRTHFSGDVQRFNSANDDNVTQVRTFYLKVLNEEQRKRLCENIAGHLKDAQLFIQKKAVKNFSDVHPEYGSRIQALLDKYNEEKPKNAVHTYVQHGSHLSAREKANL
modifications: AMC fluorophore label
For B1, the “substrate for proteolysis by trypsin” value with Trypsin is “effective and sensitive substrates”.
